Results on 94 variants are retold here after the supplement of paper PMC10567573.

B1: SPOPL (parent)
chain: AKREETKAMESQRAYRFVQGKDWG
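Also: lentivirally expressed fusions sorted by FACS into six bins by GFP to DsRed ratio, PSI derived from sequencing read proportions per bin multiplied by bin number.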

The variants in this series derive from B1. The series can be described thus: protein stability index of a GFP-peptide fusion (GPS, HEK-293T) (PSI 1-6); higher = more stable. The conditions noted are these: c terminus: a fixed tail appended.
Turning to AKREETKAIESQRAYRFVQGKDWG [M9I], the protein stability index came to 3.55.

Take AKREETKAHESQRAYRFVQGKDWG [M9H]: the protein stability index stood at 3.25.

AKREETKADESQRAYRFVQGKDWG [M9D]: the protein stability index worked out at 3.71.

For AKREETKAVESQRAYRFVQGKDWG [M9V], the protein stability index is 3.43.

For the variant AKREETKAKESQRAYRFVQGKDWG [M9K], the protein stability index stood at 3.35.

For the variant AKREETKANESQRAYRFVQGKDWG [M9N], the protein stability index amounted to 3.33.

With AKREETKAGESQRAYRFVQGKDWG [M9G], the protein stability index was found to be 3.45.

As to AKREETKATESQRAYRFVQGKDWG [M9T], the protein stability index came out at 3.66.

As for AKREETKAWESQRAYRFVQGKDWG [M9W], the protein stability index came out at 2.74.

AKREETKACESQRAYRFVQGKDWG [M9C]: the protein stability index turned out to be 3.58.

Turning to AKREETKAEESQRAYRFVQGKDWG [M9E], the protein stability index came to 3.85.

For AKREETKAAESQRAYRFVQGKDWG [M9A], the protein stability index was determined as 3.66.

AKREETKAPESQRAYRFVQGKDWG [M9P]: the protein stability index is 3.27.

With AKREETKASESQRAYRFVQGKDWG [M9S], the protein stability index was 3.87.

Take AKREETKAQESQRAYRFVQGKDWG [M9Q]: the protein stability index was 3.69.

Turning to AKREETKARESQRAYRFVQGKDWG [M9R], the protein stability index is 3.11.

As for AKREETKAYESQRAYRFVQGKDWG [M9Y], the protein stability index is 2.83.

In the case of AKREETKALESQRAYRFVQGKDWG [M9L], the protein stability index came to 3.

On to AKREETKAFESQRAYRFVQGKDWG [M9F], for which the protein stability index was determined as 2.79.

As for AKREETYAMESQRAYRFVQGKDWG [K7Y], the protein stability index is 3.5.

Take AKREETVAMESQRAYRFVQGKDWG [K7V]: the protein stability index is 2.83.

AKREETGAMESQRAYRFVQGKDWG [K7G]: the protein stability index turned out to be 3.23.

For AKREETQAMESQRAYRFVQGKDWG [K7Q], the protein stability index came out at 3.04.

With AKREETNAMESQRAYRFVQGKDWG [K7N], the protein stability index was 3.25.

As for AKREETPAMESQRAYRFVQGKDWG [K7P], the protein stability index amounted to 3.37.

As to AKREETIAMESQRAYRFVQGKDWG [K7I], the protein stability index was 2.72.

Turning to AKREETEAMESQRAYRFVQGKDWG [K7E], the protein stability index was found to be 3.72.

Take AKREETRAMESQRAYRFVQGKDWG [K7R]: the protein stability index stood at 2.57.

With AKREETSAMESQRAYRFVQGKDWG [K7S], the protein stability index was found to be 3.23.

On to AKREETDAMESQRAYRFVQGKDWG [K7D], for which the protein stability index came out at 3.29.

Consider AKREETHAMESQRAYRFVQGKDWG [K7H], for which the protein stability index was determined as 2.8.

In the case of AKREETMAMESQRAYRFVQGKDWG [K7M], the protein stability index came out at 2.62.

For AKREETWAMESQRAYRFVQGKDWG [K7W], the protein stability index worked out at 2.04.

For AKREETTAMESQRAYRFVQGKDWG [K7T], the protein stability index worked out at 3.53.

With AKREETFAMESQRAYRFVQGKDWG [K7F], the protein stability index stood at 2.9.

On to AKREETAAMESQRAYRFVQGKDWG [K7A], for which the protein stability index turned out to be 3.52.

Regarding AKREETLAMESQRAYRFVQGKDWG [K7L], the protein stability index came out at 2.44.

Consider AKREETCAMESQRAYRFVQGKDWG [K7C], for which the protein stability index is 1.78.

On to AKREWTKAMESQRAYRFVQGKDWG [E5W], for which the protein stability index turned out to be 1.75.

In the case of AKREPTKAMESQRAYRFVQGKDWG [E5P], the protein stability index stood at 2.76.

For AKREDTKAMESQRAYRFVQGKDWG [E5D], the protein stability index came out at 4.16.

For AKRETTKAMESQRAYRFVQGKDWG [E5T], the protein stability index is 2.9.

On to AKREMTKAMESQRAYRFVQGKDWG [E5M], for which the protein stability index was found to be 2.28.

As to AKREITKAMESQRAYRFVQGKDWG [E5I], the protein stability index is 2.26.

With AKREYTKAMESQRAYRFVQGKDWG [E5Y], the protein stability index is 1.71.

AKREGTKAMESQRAYRFVQGKDWG [E5G]: the protein stability index came to 2.35.

Take AKREKTKAMESQRAYRFVQGKDWG [E5K]: the protein stability index was determined as 2.79.

On to AKRECTKAMESQRAYRFVQGKDWG [E5C], for which the protein stability index worked out at 2.37.

Take AKRENTKAMESQRAYRFVQGKDWG [E5N]: the protein stability index amounted to 2.76.

On to AKRERTKAMESQRAYRFVQGKDWG [E5R], for which the protein stability index amounted to 2.38.

Consider AKREATKAMESQRAYRFVQGKDWG [E5A], for which the protein stability index came to 2.67.

Consider AKREHTKAMESQRAYRFVQGKDWG [E5H], for which the protein stability index was found to be 2.28.

As to AKREQTKAMESQRAYRFVQGKDWG [E5Q], the protein stability index came to 2.32.

Consider AKRELTKAMESQRAYRFVQGKDWG [E5L], for which the protein stability index came to 3.15.

Turning to AKREVTKAMESQRAYRFVQGKDWG [E5V], the protein stability index amounted to 3.02.

Consider AKREFTKAMESQRAYRFVQGKDWG [E5F], for which the protein stability index stood at 2.4.

Take AKRESTKAMESQRAYRFVQGKDWG [E5S]: the protein stability index was found to be 2.32.

For the variant AKREEMKAMESQRAYRFVQGKDWG [T6M], the protein stability index was 2.32.

Take AKREESKAMESQRAYRFVQGKDWG [T6S]: the protein stability index is 3.58.

For the variant AKREEAKAMESQRAYRFVQGKDWG [T6A], the protein stability index is 2.48.

Consider AKREEHKAMESQRAYRFVQGKDWG [T6H], for which the protein stability index was 3.2.

On to AKREEPKAMESQRAYRFVQGKDWG [T6P], for which the protein stability index was found to be 2.91.

As to AKREELKAMESQRAYRFVQGKDWG [T6L], the protein stability index turned out to be 3.89.

As to AKREEDKAMESQRAYRFVQGKDWG [T6D], the protein stability index turned out to be 3.18.

With AKREEQKAMESQRAYRFVQGKDWG [T6Q], the protein stability index came out at 3.54.

For the variant AKREENKAMESQRAYRFVQGKDWG [T6N], the protein stability index came to 3.34.

With AKREEFKAMESQRAYRFVQGKDWG [T6F], the protein stability index worked out at 2.32.

As to AKREECKAMESQRAYRFVQGKDWG [T6C], the protein stability index was determined as 3.06.

On to AKREERKAMESQRAYRFVQGKDWG [T6R], for which the protein stability index was 2.67.

For the variant AKREEVKAMESQRAYRFVQGKDWG [T6V], the protein stability index turned out to be 2.29.

In the case of AKREEGKAMESQRAYRFVQGKDWG [T6G], the protein stability index worked out at 2.56.

For AKREEYKAMESQRAYRFVQGKDWG [T6Y], the protein stability index stood at 2.46.

For the variant AKREEWKAMESQRAYRFVQGKDWG [T6W], the protein stability index amounted to 2.48.

As for AKREEIKAMESQRAYRFVQGKDWG [T6I], the protein stability index was 2.34.

On to AKREEKKAMESQRAYRFVQGKDWG [T6K], for which the protein stability index was found to be 2.89.

Take AKREEEKAMESQRAYRFVQGKDWG [T6E]: the protein stability index stood at 3.51.

For AKREETKAMEPQRAYRFVQGKDWG [S11P], the protein stability index came to 2.72.

AKREETKAMEKQRAYRFVQGKDWG [S11K]: the protein stability index was found to be 3.15.

With AKREETKAMEQQRAYRFVQGKDWG [S11Q], the protein stability index is 3.58.

As to AKREETKAMEAQRAYRFVQGKDWG [S11A], the protein stability index stood at 2.07.

AKREETKAMELQRAYRFVQGKDWG [S11L]: the protein stability index came out at 2.36.

Take AKREETKAMEEQRAYRFVQGKDWG [S11E]: the protein stability index is 3.77.

On to AKREETKAMEVQRAYRFVQGKDWG [S11V], for which the protein stability index was 2.53.

Turning to AKREETKAMEMQRAYRFVQGKDWG [S11M], the protein stability index amounted to 2.33.

For AKREETKAMEHQRAYRFVQGKDWG [S11H], the protein stability index turned out to be 2.83.

AKREETKAMEFQRAYRFVQGKDWG [S11F]: the protein stability index was 2.14.

As for AKREETKAMEYQRAYRFVQGKDWG [S11Y], the protein stability index worked out at 2.59.

AKREETKAMETQRAYRFVQGKDWG [S11T]: the protein stability index stood at 2.76.

Turning to AKREETKAMERQRAYRFVQGKDWG [S11R], the protein stability index was found to be 2.96.

As for AKREETKAMEDQRAYRFVQGKDWG [S11D], the protein stability index worked out at 4.06.

As for AKREETKAMEIQRAYRFVQGKDWG [S11I], the protein stability index was 2.44.

Regarding AKREETKAMEWQRAYRFVQGKDWG [S11W], the protein stability index came out at 1.88.

In the case of AKREETKAMENQRAYRFVQGKDWG [S11N], the protein stability index amounted to 3.47.

With AKREETKAMEGQRAYRFVQGKDWG [S11G], the protein stability index turned out to be 2.54.
